What was measured:
[1] = biological target: T1, SARS-CoV-2 S protein trimer (SARS-CoV-2, UniProt P0DTC2 14-1208); assay: Carterra SPR, DB format, S trimer
[2] = biological target: T1, SARS-CoV-2 S protein trimer; assay: Carterra SPR, direct capture (DC), S trimer
[3] = biological target: T1, SARS-CoV-2 S protein trimer; assay: Carterra SPR, Fc capture, S trimer
[4] = biological target: Acro COVID S1 (S1N-C82E8) (SARS-CoV-2, UniProt P0DTC2 16-685); assay: phage ELISA
[5] = biological target: CV S-protein construct 6 trimer TP31001F (SARS-CoV-2, UniProt P0DTC2 14-1208); assay: SPR

B1: 2-4 (antibody, V domains shown)
VH: EVQLLESGGGLVQPGGSLRLSCAASGFTFSDFAMAWVRQAPGKGLEWVSAISGSGDITYYADSVKGRFTISRDNSKNTLYLQMNSLRAEDTAVYYCAREADGLHSPWHFDLWGQGTLVTVSS
VL: DIQMTQSPSSLSASVGDRVTITCRASQSIDTYLNWYQQKPGKAPKLLIYAASALASGVPSRFSGSGSGTDFTLTISSLQPEDFATYYCQQSYSAPPYTFGQGTKVEIK
notes: also called variant 2-4
- Kd [1]: 4340 nM

B2: 2-5 (antibody, V domains shown)
VH: EVQLLESGGGLVQPGGSLRLSCAASGFTFSDFAMAWVRQAPGKGLEWVSAISGSGDITYYADSVKGRFTISRDNSKNTLYLQMNSLRAEDTAVYYCAREADGLHSPWHFDLWGQGTLVTVSS
VL: DIQMTQSPSSLSASVGDRVTITCRASQSIHTYLNWYQQKPGKAPKLLIYAASALASGVPSRFSGSGSGTDFTLTISSLQPEDFATYYCQQSYSAPPYTFGQGTKVEIK
notes: also called variant 2-5
- Kd [2]: 17.3 nM
- Kd [3]: 90.2 nM

B3: 2-2 (antibody, V domains shown)
VH: EVQLLESGGGLVQPGGSLRLSCAASGFTFSRHAMNWVRQAPGKGLEWVSGISGSGDETYYADSVKGRFTISRDNSKNTLYLQMNSLRAEDTAVYYCARDLPASYYDSSGYYWHNGMDVWGQGTLVTVSS
VL: DIQMTQSPSSLSASVGDRVTITCRASQTINTYLNWYQQKPGKAPKLLIYSASTLQSGVPSRFSGSGSGTDFTLTISSLQPEDFATYYCQQSYSTFTFGQGTKVEIK
notes: also called variant 2-2
- Kd [2]: 1.4 nM
- Kd [1]: 1.2 nM
- Kd [3]: 0.8 nM

B4: 2-12 (antibody, V domains shown)
VH: EVQLLESGGGLVQPGGSLRLSCAASGFTFSDYPMNWVRQAPGKGLEWVSTISGSGGITFYADSVKGRFTISRDNSKNTLYLQMNSLRAEDTAVYYCVRHDEYSFDYWGQGTLVTVSS
VL: DIQMTQSPSSLSASVGDRVTITCRASQSIDNYLNWYQQKPGKAPKLLIYGVSALQSGVPSRFSGSGSGTDFTLTISSLQPEDFATYYCQQSHSAPPYFFGQGTKVEIK
notes: also called variant 2-12
- Kd [2]: 63.8 nM
- Kd [1]: 6.4 nM
- Kd [3]: 3.2 nM

B5: 2-8 (antibody, V domains shown)
VH: EVQLLESGGGLVQPGGSLRLSCAASGFTFSDFAMAWVRQAPGKGLEWVSAISGSGDITYYADSVKGRFTISRDNSKNTLYLQMNSLRAEDTAVYYCAREADGLHSPWHFDLWGQGTLVTVSS
VL: DIQMTQSPSSLSASVGDRVTITCRASQSIDTYLNWYQQKPGKAPKLLIYAASALASGVPSRFSGSGSGTDFTLTISSLQPEDFATYYCQQSYSAPPYTFGQGTKVEIK
notes: also called variant 2-8
- Kd [2]: 47.4 nM
- Kd [1]: 115 nM

B6: 2-9 (antibody, V domains shown)
VH: EVQLLESGGGLVQPGGSLRLSCAASGFTFPRYAMSWVRQAPGKGLEWVSTISGSGSTTYYADSVKGRFTISRDNSKNTLYLQMNSLRAEDTAVYYCARLIDAFDIWGQGTLVTVSS
VL: DIQMTQSPSSLSASVGDRVTITCRASQRIGTYLNWYQQKPGKAPKLLIYAASNLEGGVPSRFSGSGSGTDFTLTISSLQPEDFATYYCQQNYSTTWTFGQGTKVEIK
notes: also called variant 2-9
- Kd [3]: 23600 nM

B7: variant 2-1 (antibody, V domains shown)
VH: EVQLLESGGGLVQPGGSLRLSCAASGFTFSNYATDWVRQAPGKGLEWVSIISGSGGATYYADSVKGRFTISRDNSKNTLYLQMNSLRAEDTAVYYCAKGGYCSSDTCWWEYWLDPWGQGTLVTVSS
VL: DIQMTQSPSSLSASVGDRVTITCRASQSIHRFLNWYQQKPGKAPKLLIYAASNLHSGVPSRFSGSGSGTDFTLTISSLQPEDFATYYCQQSYGLPPTFGQGTKVEIK
- specificity ELISA, fold over background [4]: 39.3 fold over background

B8: variant 2-4 (antibody, V domains shown)
VH: EVQLLESGGGLVQPGGSLRLSCAASGFTFSDFAMAWVRQAPGKGLEWVSAISGSGDITYYADSVKGRFTISRDNSKNTLYLQMNSLRAEDTAVYYCAREADGLHSPWHFDLWGQGTLVTVSS
VL: DIQMTQSPSSLSASVGDRVTITCRASQSIDTYLNWYQQKPGKAPKLLIYAASALASGVPSRFSGSGSGTDFTLTISSLQPEDFATYYCQQSYSAPPYTFGQGTKVEIK
- specificity ELISA, fold over background [4]: 37.7 fold over background

B9: variant 2-5 (antibody, V domains shown)
VH: EVQLLESGGGLVQPGGSLRLSCAASGFTFSDFAMAWVRQAPGKGLEWVSAISGSGDITYYADSVKGRFTISRDNSKNTLYLQMNSLRAEDTAVYYCAREADGLHSPWHFDLWGQGTLVTVSS
VL: DIQMTQSPSSLSASVGDRVTITCRASQSIHTYLNWYQQKPGKAPKLLIYAASALASGVPSRFSGSGSGTDFTLTISSLQPEDFATYYCQQSYSAPPYTFGQGTKVEIK
- specificity ELISA, fold over background [4]: 38.3 fold over background

B10: variant 2-2 (antibody, V domains shown)
VH: EVQLLESGGGLVQPGGSLRLSCAASGFTFSRHAMNWVRQAPGKGLEWVSGISGSGDETYYADSVKGRFTISRDNSKNTLYLQMNSLRAEDTAVYYCARDLPASYYDSSGYYWHNGMDVWGQGTLVTVSS
VL: DIQMTQSPSSLSASVGDRVTITCRASQTINTYLNWYQQKPGKAPKLLIYSASTLQSGVPSRFSGSGSGTDFTLTISSLQPEDFATYYCQQSYSTFTFGQGTKVEIK
- specificity ELISA, fold over background [4]: 39.4 fold over background

B11: variant 3-10 (antibody, V domains shown)
VH: EVQLLESGGGLVQPGGSLRLSCAASGFTFRSHAMSWVRQAPGKGLEWVSSISGGGASTYYADSVKGRFTISRDNSKNTLYLQMNSLRAEDTAVYYCARVKYLTTSSGWPRPYFDNWGQGTLVTVSS
VL: DIQMTQSPSSLSASVGDRVTITCRASQSIRKYLNWYQQKPGKAPKLLIYASSTLQRGVPSRFSGSGSGTDFTLTISSLQPEDFATYYCQQSLSTPFTFGGGTKVEIK
- specificity ELISA, fold over background [4]: 1.2 fold over background

B12: variant 6-2 (Fc fusion)
VHH: EVQLVESGGGLVQPGGSLRLSCAASGFTMSSSWMGWFRQAPGKEREFVTVISGVGTSYADSVKGRFTISADNSKNTAYLQMNSLKPEDTAVYYCARGPDSSGYGFDYWGQGTLVTVSS
- Kd [5]: 1.2 nM

B13: variant 6-24 (Fc fusion)
VHH: EVQLVESGGGLVQPGGSLRLSCAASGFTLDYYAMGWFRQAPGKEREFVAAINWSGDNTHYADSVKGRFTISADNSKNTAYLQMNSLKPEDTAVYYCARAPFYCTTTKCQDNYYYMDVWGQGTLVTVSS
- Kd [5]: 0.2 nM

B14: variant 6-18 (Fc fusion)
VHH: EVQLVESGGGLVQPGGSLRLSCAASGLTFRNYAMGWFRQAPGKEREFIAGMMWSGGTTTYADSVKGRFTISADNSKNTAYLQMNSLKPEDTAVYYCAREGYYYDSSGYLNYFDYWGQGTLVTVSS
- Kd [5]: 5.3 nM

B15: variant 5-37 (Fc fusion)
VHH: EVQLVESGGGLVQPGGSLRLSCAASGSTFSINAMGWFRQAPGKEREFVGGISRSGATTNYADSVKGRFTISADNSKNTAYLQMNSLKPEDTAVYYCAADGVPEYSDYASGPVWGQGTLVTVSS
- Kd [5]: 1.8 nM

B16: variant 5-56 (Fc fusion)
VHH: EVQLVESGGGLVQPGGSLRLSCAASGRTFSSNMGWFRQAPGKEREFVARIFGGDRTLYADSVKGRFTISADNSKNTAYLQMNSLKPEDTAVYYCADINGDWGQGTLVTVSS
- Kd [5]: 2.77 nM

B17: variant 6-73 (Fc fusion)
VHH: EVQLVESGGGLVQPGGSLRLSCAASGHTFSGYAMGWFRQAPGKEREFVAVITREGSTYYADSVKGRFTISADNSKNTAYLQMNSLKPEDTAVYYCARLGGEGFDYWGQGTLVTVSS
- Kd [5]: 0.52 nM

B18: variant 6-76 (Fc fusion)
VHH: EVQLVESGGGLVQPGGSLRLSCAASGLAFDFDGMGWFRQAPGKEREGVAAINSGGSTYYADSVKGRFTISADNSKNTAYLQMNSLKPEDTAVYYCARFFRAHDYWGQGTLVTVSS
- Kd [5]: 1.77 nM

B19: variant 2-12 (antibody, V domains shown)
VH: EVQLLESGGGLVQPGGSLRLSCAASGFTFSDYPMNWVRQAPGKGLEWVSTISGSGGITFYADSVKGRFTISRDNSKNTLYLQMNSLRAEDTAVYYCVRHDEYSFDYWGQGTLVTVSS
VL: DIQMTQSPSSLSASVGDRVTITCRASQSIDNYLNWYQQKPGKAPKLLIYGVSALQSGVPSRFSGSGSGTDFTLTISSLQPEDFATYYCQQSHSAPPYFFGQGTKVEIK
- specificity ELISA, fold over background [4]: 39.8 fold over background

B20: variant 2-13 (antibody, V domains shown)
VH: EVQLLESGGGLVQPGGSLRLSCAASGFTFSDYPMNWVRQAPGKGLEWVSAISGSGDNTYYADSVKGRFTISRDNSKNTLYLQMNSLRAEDTAVYYCVRHDEYSFDYWGQGTLVTVSS
VL: DIQMTQSPSSLSASVGDRVTITCRASQSIDTYLNWYQQKPGKAPKLLIYGASALESGVPSRFSGSGSGTDFTLTISSLQPEDFATYYCQQSHSAPPYFFGQGTKVEIK
- specificity ELISA, fold over background [4]: 27.3 fold over background

B21: variant 2-8 (antibody, V domains shown)
VH: EVQLLESGGGLVQPGGSLRLSCAASGFTFSDFAMAWVRQAPGKGLEWVSAISGSGDITYYADSVKGRFTISRDNSKNTLYLQMNSLRAEDTAVYYCAREADGLHSPWHFDLWGQGTLVTVSS
VL: DIQMTQSPSSLSASVGDRVTITCRASQSIDTYLNWYQQKPGKAPKLLIYAASALASGVPSRFSGSGSGTDFTLTISSLQPEDFATYYCQQSYSAPPYTFGQGTKVEIK
- specificity ELISA, fold over background [4]: 35.9 fold over background

B22: variant 2-9 (antibody, V domains shown)
VH: EVQLLESGGGLVQPGGSLRLSCAASGFTFPRYAMSWVRQAPGKGLEWVSTISGSGSTTYYADSVKGRFTISRDNSKNTLYLQMNSLRAEDTAVYYCARLIDAFDIWGQGTLVTVSS
VL: DIQMTQSPSSLSASVGDRVTITCRASQRIGTYLNWYQQKPGKAPKLLIYAASNLEGGVPSRFSGSGSGTDFTLTISSLQPEDFATYYCQQNYSTTWTFGQGTKVEIK
- specificity ELISA, fold over background [4]: 24.1 fold over background

Source: patent US20210355194A1 (TWIST BIOSCIENCE, published 2021)
